Two molecules from article PMC5345052, “Auto-phosphorylation Represses Protein Kinase R Activity” (Scientific Reports, 2017) can be followed below.

Residue numbers refer to the chain shown, from its start. In names and notes the source's numbering stands.

The target of data set [1] is T1, kinase-dead PKR (K296R), recombinant His-tagged full-length protein kinase R (human), P19525.
T1 chain: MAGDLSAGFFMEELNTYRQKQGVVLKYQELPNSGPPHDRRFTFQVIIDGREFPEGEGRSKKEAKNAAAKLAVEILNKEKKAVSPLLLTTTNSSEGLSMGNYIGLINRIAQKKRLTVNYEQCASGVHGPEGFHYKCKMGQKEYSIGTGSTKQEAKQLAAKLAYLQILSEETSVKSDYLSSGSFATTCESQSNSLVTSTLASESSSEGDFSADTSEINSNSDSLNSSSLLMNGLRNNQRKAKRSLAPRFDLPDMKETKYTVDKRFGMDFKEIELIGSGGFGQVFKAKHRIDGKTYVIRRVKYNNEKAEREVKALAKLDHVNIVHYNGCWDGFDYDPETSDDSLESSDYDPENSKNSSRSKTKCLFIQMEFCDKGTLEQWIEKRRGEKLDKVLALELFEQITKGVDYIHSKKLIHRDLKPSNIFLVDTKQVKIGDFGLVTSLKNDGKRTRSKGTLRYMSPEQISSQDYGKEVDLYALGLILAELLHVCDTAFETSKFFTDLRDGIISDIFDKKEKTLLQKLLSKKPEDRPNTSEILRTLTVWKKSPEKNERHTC
Nature of the data set: liquid chromatography; recombinant PKR isolated during purification as separate monomer and dimer species. Particulars: remark: other sources report otherwise.

Data set [2] deals with the molecule itself. The data set is described as above.

B1: kinase-dead PKR (K296R), recombinant His-tagged full-length protein kinase R, P19525 1-551 (enzyme)
chain: T1 chain
Take B1: in data set [1], the stoichiometry N (usually the number of molecules, sites or subunits per partner or assembly) amounted to 2.

B2: PKR K296R-S33E-T42E, recombinant His-tagged full-length protein kinase R (enzyme, human, UniProt P19525 1-551, looked up)
chain: T1 chain with S33E, T42E
notes: protein kinase R (PKR), human, full-length molecule with K296R and the phosphor-mimetic S33E and T42E; also called triple mutant; source: isolated by liquid chromatography as monomer and as dimer
Regarding B2, in data set [2], the “stoichiometry N” value was found to be 2.
